Measured values as given in US20070185028A1, “Compositions and methods for treatment of protein misfolding and protein aggregation diseases” (priority 2004, published 2007).

Target: T1, Aβ1-42 (Homo sapiens, UniProt P05067)
T1 construct: Aβ1-42 (American Peptide); purchased American Peptide
Assay: Aβ1-42 fibril formation ThT fluorescence assay
Type: biochemical
Conditions: for decrease in ThT fluorescence of Aβ1-42: 30 μM Aβ1-42, 48 hrs
Method: The effect of five synthesized αB crystallin peptides STSLSPFYLRPPSFLRAP (ST), DRFSVNLDVKHFS (DR), HGKHEERQDE (HG), LTITSSLSSDGV (LT), and ERTIPITRE (ER) on Aβ1-42 fibrillation was measured using the ThT fluorescence assay (FIG. 1). The formation and inhibition of Aβ1-42 fibrils was qualitatively verified by fluorescence and bright-field microscopy. The concentration and stoichometry of the peptides was varied relative to Aβ1-42 to establish a concentration curve. In addition, the effect of two known inhibitors of Aβ1-42 fibrillation (APS and NAP) and a control neuropeptide (AT1) with no fibril inhibition activity was measured and compared to the effect of the αB crystallin peptides on Aβ1-42 fibrillation. The ThT fluorescence of 30 μM Aβ1-42 alone incubated at 37° C. for 48 hrs increased from ˜350,000 to ˜450,000 RFU. […] In contrast, 6 μM DR, LT, and […] had no effect on Aβ1-42 fibril formation. […] Increasing the concentration of the DR peptide to 30 μM decreased the ThT fluorescence by approximately 50%. […] However, when the concentrations of the LT and ER peptides were increased to 150 μM, a 60-100% decrease in ThT fluorescence was measured. […] The negative control peptide AT1 had no effect on Aβ1-42 fibril formation even at a concentration as high as 300 μM.
The Thioflavin T (ThT) fluorescence of Aβ1-42 in the presence of varying concentrations of αB crystallin peptides and controls was measured. […] Addition of 6 μM DR, LT, and ER had no effect on the ThT fluorescence of Aβ1-42. When the concentration of the peptides was increased to 30 μM (1:1::peptide:Aβ1-42), the αB crystallin peptides ST, DR, HG decreased the ThT fluorescence by 50-100%. At the same concentrations, APS and NAP decreased the ThT fluorescence by 30-100%. When the concentration of the peptides was increased further to 150 μM ([…]), four of the five αB crystallin peptides DR, HG, LT, and ER decreased the ThT fluorescence by 58-100%. At the same concentrations, APS and NAP decreased the fluorescence by 28-100%. […] The formation and inhibition of Aβ fibrils was verified microscopically.
Thioflavin T (ThT) Assays. The effect of the five αB crystallin peptides (ST, DR, HG, LT, and ER) on Aβ1-42 fibril formation was measured using the ThT fluorescence assay (44-47) and compared with two known inhibitors of Aβ1-42 fibril formation (Tramiprosate and NAP)(34, 36) and a negative control neuropeptide Angiotensin 1 (AT1). Thioflavin T is a fluorescent dye that has a high affinity for amyloid fibrils and becomes fluorescent (excitation λ=450 nm, emission λ=486 nm) when bound to fibrils. For the Aβ1-42 assays, peptides and APS were dissolved to 2 mM in 0.25% DMSO and diluted accordingly, while Aβ1-42 was dissolved in 20 mM Tris-Cl, pH 7.40, and 100 mM NaCl. For the 5:1::inhibitor:Aβ1-42 assay, 10 μL of 450 μM peptide or APS was mixed with 10 μL of 90 μM Aβ1-42), 7 μL 20 mM Tris-Cl, 100 mM NaCl, pH 7.4 and 3 μL of 1 mM ThT. For the 1:1::inhibitor:Aβ1-42 assay, 10 μL of 90 μM peptide or APS was mixed with 10 μL of 90 μM Aβ(1-42), 7 μL 20 mM Tris-Cl, 100 mM NaCl, pH 7.4 and 3 μL of 1 mM ThT. For the 1:5::inhibitor:Aβ1-42 assay, 10 μL of 18 μM peptide or APS was mixed with 10 μL of 90 μM Aβ(1-42), 7 μL 20 mM Tris-Cl, 100 mM NaCl, pH 7.4 and 3 μL of 1 mM ThT. ThT fluorescence in relative fluorescence units (RFU) was measured using a Perkin Elmer Victor^3 V plate reader. Assays were performed in 384-well fluorescence plates in duplicates or triplicates. Samples were incubated at 37° C. for a total of 48 hours. ThT fluorescence was measured at 0, 24, and 48 hours. The effect of the peptides and APS was calculated as percentage fibril formation relative to Aβ1-42 alone (100%) at the end of 48 hours.

Row | Sequence | decrease in ThT fluorescence of Aβ1-42 (6 μM inhibitor, 37° C.) | decrease in ThT fluorescence of Aβ1-42 (30 μM inhibitor (1:1)) | effect on Aβ1-42 fibril formation, over all concentrations (any concentration) | inhibition of Aβ fibrillation (peptide to substrate concentration of 1:5) [%]
1 | DRFSVNLDVKHFS | no effect | – | – | –
2 | ERTIPITRE | no effect | no effect | – | –
3 | HGKHEERQDE | – | – | most effective inhibitor | –
4 | LTITSSLSSDGV | no effect | no effect | – | –
5 | STSLSPFYLRPPSFLRAP | – | – | – | 100
